Laboratory results published in the supplement of paper PMC7877785.
± gives the uncertainty stated by the source.

Assay: self-splicing fitness, log relative to wild type (ln ratio); higher = more splicing; Tetrahymena group I intron in knt gene, E. coli kanamycin selection, DiMSum; sequences stand for … in CUCUCU…GGAGGGAAAAGUUAUCAGGCAUGCACCUGGUAGCUAGUCUUUAAACCAAUAGAUUGCAUCGGUUUAAAAGGCAAGACCGUCAAAUUGCGGGAAAGGGGUCAACAGCCGUUCAGUACCAAGUCUCAGGGGAAACUUUGAGAUGGCCUUGCAAAGGGUAUGGUAAUAAGCUGACGGACAUGGUCCUAACCACGCAGCCAAGUCCUAAGUCAACAGAUCUUCUGUUGAUAUGGAUGCAGUUCACAGACUAAAUGUCGGUCGGGGAAGAUGUAUUCUUCUCAUAAGAUAUAGUCGGACCUCUCCUUAAUGGGAGCUAGCGGAUGAAGUGAUGCAACACUGGAGCCGCUGGGAACUAAUUUGUAUGCGAAAGUAUAUUGAUUAGUUUUGGAGUACUCGUGGUCG
How it was run: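 Fitness was computed with DiMSum as the error-weighted combination of replicate fold changes, kanamycin versus none, each normalised to wild type. The library randomised all eight intron nucleotides of the P1ex region, with the intron placed in the knt kanamycin-resistance gene on pET-22b(+) in E. coli BL21(DE3). Six replicate transformations were grown overnight at 37°C or 30°C on LB agar with or without 25 μg/mL kanamycin, plus 100 μg/mL carbenicillin, 50 μM IPTG and 0.2% rhamnose. Pooled colonies were amplicon-sequenced on an Illumina HiSeq 2500.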

Sequence	self-splicing fitness (ln) (30 °C)	self-splicing fitness (ln) (37 °C)
GGUCAGCAAUAUUACGCGCA	-0.219 ± 0.13	-0.27 ± 0.12
UCAGAGCAAUAUUACGGUCU	-1.95 ± 0.2	-2.43 ± 0.39
CACGAGCAAUAUUACGUGCA	-3.55 ± 0.18	-3.24 ± 0.23
GUACAGCAAUAUUACGUGCG	-2.57 ± 0.12	-1.21 ± 0.095
CAAAAGCAAUAUUACGUGCG	-1 ± 0.051	-0.35 ± 0.063
ACCAAGCAAUAUUACGGCCG	-0.944 ± 0.086	-0.259 ± 0.11
GAGAAGCAAUAUUACGUAGU	-2.89 ± 0.094	-1.39 ± 0.097
AUCUAGCAAUAUUACGAUAC	-3.21 ± 0.35	-2.27 ± 0.29
GUUGAGCAAUAUUACGCGCA	-1.02 ± 0.2	-0.636 ± 0.24
CGGCAGCAAUAUUACGAUUG	-0.72 ± 0.055	0.0589 ± 0.08
GCCAAGCAAUAUUACGCCAG	-3.37 ± 0.21	-2.88 ± 0.24
AGACAGCAAUAUUACGACGU	0.00817 ± 0.047	-0.185 ± 0.051
CUCGAGCAAUAUUACGACUA	-3.02 ± 0.33	-0.507 ± 0.21
CGAUAGCAAUAUUACGGCGU	-0.866 ± 0.085	0.51 ± 0.12
AGAUAGCAAUAUUACGGACA	-0.869 ± 0.15	-0.224 ± 0.16
CGGUAGCAAUAUUACGCACG	-2.85 ± 0.21	-1.59 ± 0.26
GGGUAGCAAUAUUACGGGCG	-0.346 ± 0.098	-0.12 ± 0.13
AUGGAGCAAUAUUACGGGUU	-2.3 ± 0.43	-3.16 ± 0.4
CAUGAGCAAUAUUACGACAG	-1.89 ± 0.13	-1.02 ± 0.15
CUGUAGCAAUAUUACGGAAG	-3.31 ± 0.16	-2.22 ± 0.19
GUAGAGCAAUAUUACGGAGC	-0.91 ± 0.14	-0.327 ± 0.2
UUUAAGCAAUAUUACGUGUA	-1.88 ± 0.12	-0.799 ± 0.12
GCGUAGCAAUAUUACGUUUU	-3.15 ± 0.14	-1.8 ± 0.13
UGUAAGCAAUAUUACGCCUC	-3.28 ± 0.32	-2.25 ± 0.24
AUAAAGCAAUAUUACGACUA	0.277 ± 0.083	0.129 ± 0.1
UUCCAGCAAUAUUACGAAGG	-3.8 ± 0.22	-3.2 ± 0.37

Sequence	self-splicing fitness (ln) (30 °C)	self-splicing fitness (ln) (37 °C)
UCCUAGCAAUAUUACGCUGU	-2.52 ± 0.22	-2.23 ± 0.27
UAACAGCAAUAUUACGGUUC	-2.65 ± 0.069	-1.28 ± 0.08
UGAUAGCAAUAUUACGGUCA	-0.441 ± 0.073	-0.29 ± 0.071
GCCGAGCAAUAUUACGACGA	-1.34 ± 0.11	-0.792 ± 0.098
ACCCAGCAAUAUUACGACAU	-0.995 ± 0.011	-0.241 ± 0.032
GACCAGCAAUAUUACGUUGA	-0.701 ± 0.053	-0.203 ± 0.066
GUCUAGCAAUAUUACGAAAC	-0.862 ± 0.13	-0.29 ± 0.14
GAUUAGCAAUAUUACGUUUU	-3.88 ± 0.28	-1.59 ± 0.16
UAAUAGCAAUAUUACGGCCU	-1.16 ± 0.14	-0.77 ± 0.19
GACUAGCAAUAUUACGAUAA	-0.678 ± 0.12	-0.492 ± 0.13
AGGUAGCAAUAUUACGUCCG	-0.127 ± 0.017	0.055 ± 0.036
AGGUAGCAAUAUUACGUUAU	-3.603 ± 0.026	-2.75 ± 0.039
CUGCAGCAAUAUUACGCAUU	-4.22 ± 0.2	-2.21 ± 0.23
GAGGAGCAAUAUUACGUUCU	-2.2 ± 0.2	-2.4 ± 0.33
GUGGAGCAAUAUUACGUCGA	-3.42 ± 0.37	-1.48 ± 0.3
GAUCAGCAAUAUUACGAUCU	-4.13 ± 0.42	-1.8 ± 0.26
CCGCAGCAAUAUUACGAUGU	-3.21 ± 0.14	-2.83 ± 0.17
UUUAAGCAAUAUUACGUAGA	-0.521 ± 0.098	0.0733 ± 0.14
CUGAAGCAAUAUUACGUGUA	-4.08 ± 0.24	-2.12 ± 0.2
GUUAAGCAAUAUUACGGAUC	-0.695 ± 0.09	0.135 ± 0.12
CGCUAGCAAUAUUACGCAUG	-2.04 ± 0.12	-1.24 ± 0.16
UUUCAGCAAUAUUACGUAAC	-3.2 ± 0.23	-2.4 ± 0.27
GGUCAGCAAUAUUACGCCAU	-3.36 ± 0.3	-0.853 ± 0.17
AUGCAGCAAUAUUACGGGCU	-2.25 ± 0.078	-1.07 ± 0.1
AUAUAGCAAUAUUACGAAAU	-1.01 ± 0.21	-1.72 ± 0.28
UAGUAGCAAUAUUACGAUAA	-3.02 ± 0.36	-1.18 ± 0.2

Sequence	self-splicing fitness (ln) (30 °C)	self-splicing fitness (ln) (37 °C)
AUCAAGCAAUAUUACGAACC	-1.05 ± 0.18	-0.734 ± 0.25
UAUCAGCAAUAUUACGUGUG	-0.333 ± 0.058	0.407 ± 0.076
GAGCAGCAAUAUUACGAAGC	-3.93 ± 0.25	-2.21 ± 0.15
CAGCAGCAAUAUUACGCGAC	-2.71 ± 0.39	-0.925 ± 0.25
GCUGAGCAAUAUUACGACAA	-3.36 ± 0.45	-1.07 ± 0.39
GACCAGCAAUAUUACGUUGG	-3.95 ± 0.13	-2.53 ± 0.12
ACGGAGCAAUAUUACGCGUU		-1.9 ± 0.21
GCCCAGCAAUAUUACGGAAA	-0.768 ± 0.075	-0.234 ± 0.084
CAUGAGCAAUAUUACGGGCG	-0.135 ± 0.075	0.178 ± 0.092
UCGAAGCAAUAUUACGUGCC	-2.86 ± 0.42	
AACUAGCAAUAUUACGUAUU	-2.04 ± 0.082	-0.837 ± 0.11
CAUCAGCAAUAUUACGCAAC		-1.59 ± 0.28
AAGAAGCAAUAUUACGCUCG	-0.487 ± 0.078	-0.257 ± 0.12
CUUGAGCAAUAUUACGAGAU	-3.68 ± 0.37	-0.585 ± 0.15
CUGUAGCAAUAUUACGGCUU	-3.72 ± 0.25	-2.86 ± 0.3
CCAGAGCAAUAUUACGCUCG	-2.32 ± 0.28	-1.95 ± 0.38
CACCAGCAAUAUUACGGACU	-2.98 ± 0.11	-2 ± 0.11
CACGAGCAAUAUUACGCCUC	-3.79 ± 0.26	-1.37 ± 0.23
AACUAGCAAUAUUACGCCCC	0.0551 ± 0.17	-0.32 ± 0.18
ACGAAGCAAUAUUACGUCCA	-0.408 ± 0.12	-0.457 ± 0.13
GGACAGCAAUAUUACGCAUG	-0.84 ± 0.085	-0.235 ± 0.11
GGUAAGCAAUAUUACGGAAG	-3.03 ± 0.18	-2.56 ± 0.26
UCUUAGCAAUAUUACGCAAU		-2.53 ± 0.36
GUAUAGCAAUAUUACGAACU	-1.75 ± 0.23	0.477 ± 0.24
